Source: article PMC11276767
pKd: −log10 of the molar value.

Target: Ca2+
Experiment: in situ Ca2+ titration of FRET with mNGΔN5-SOAR1L
Conditions: 25 µM digitonin, 10 µM ionomycin, EGTA

Substance: STIM1 1-310-CFPΔC11 C49A; C56A
- pKd (cells transfected with CasRx-P4HB (P4HB knockdown), Hill n 2.8±0.09): 3.13
- pKd (cells transfected with CasRx-PDIA3 (PDIA3 knockdown), Hill n 2.8±0.12): 3.12
- pKd (cells transfected with control CasRx, Hill n 2.7±0.12): 3.12
